One assay relates to r-vWF. Put plainly: Degradation of r-vWF with plasmin. The assay is classed as biochemical.
A further assay concerns vWF. The note with it: after cleavage with plasmin; cited from earlier work.
The next assay concerns plasmatic vWF. Put plainly: Degradation of plasmatic vWF (cryoprecipitate) with plasmin. The assay is classed as biochemical, human. Conditions: overnight digestion.

B1: plasmin: human plasmin from Chromogenics, serine protease used as comparison (protein, UniProt P00747 20-580; P00747 581-810, looked up)
Plasmin heavy chain A: EPLDDYVNTQGASLFSVTKKQLGAGSIEECAAKCEEDEEFTCRAFQYHSKEQQCVIMAENRKSSIIIRMRDVVLFEKKVYLSECKTGNGKNYRGTMSKTKNGITCQKWSSTSPHRPRFSPATHPSEGLEENYCRNPDNDPQGPWCYTTDPEKRYDYCDILECEEECMHCSGENYDGKISKTMSGLECQAWDSQSPHAHGYIPSKFPNKNLKKNYCRNPDRELRPWCFTTDPNKRWELCDIPRCTTPPPSSGPTYQCLKGTGENYRGNVAVTVSGHTCQHWSAQTPHTHNRTPENFPCKNLDENYCRNPDGKRAPWCHTTNSQVRWEYCKIPSCDSSPVSTEQLAPTAPPELTPVVQDCYHGDGQSYRGTSSTTTTGKKCQSWSSMTPHRHQKTPENYPNAGLTMNYCRNPDADKGPWCFTTDPSVRWEYCNLKKCSGTEASVVAPPPVVLLPDVETPSEEDCMFGNGKGYRGKRATTVTGTPCQDWAAQEPHRHSIFTPETNPRAGLEKNYCRNPDGDVGGPWCYTTNPRKLYDYCDVPQCAAPSFDCGKPQVEPKKCPGR
Plasmin light chain B: VVGGCVAHPHSWPWQVSLRTRFGMHFCGGTLISPEWVLTAAHCLEKSPRPSSYKVILGAHQEVNLEPHVQEIEVSRLFLEPTRKDIALLKLSSPAVITDKVIPACLPSPNYVVADRTECFITGWGETQGTFGAGLLKEAQLPVIENKVCNRYEFLNGRVQSTELCAGHLAGGTDSCQGDSGGPLVCFEKDKYILQGVTSWGLGCARPNKPGVYVRVSRFVTWIEGVMRNN
modifications: Plasmin
notes: human plasmin from Chromogenics, serine protease used as comparison
B1: the “degradation of recombinant vWF” value in the assay with r-vWF (overnight digestion) is recorded as “completely degraded”. Besides, the “degradation of r-vWF multimers (kinetic examination)” value in the assay on r-vWF (plasmin 0.2 U/ml admixed 1:1 with r-vWF, 37° C.) is reported as “successive degradation of the multimers over 29 h”. Moreover, the “degradation of r-vWF” value in the assay on r-vWF (plasmin concentration reduced to 1:10) was “degraded more slowly”. In the assay on vWF, the “platelet agglutinating activity (ristocetin cofactor) retained by high molecular weight core region of vWF” value is on record as “about 70%”. The “degradation of plasmatic vWF” value in the assay on plasmatic vWF is recorded as “completely degraded”.
